Counter-ions that a name gives are not always drawn. A value given as a limit tells only on which side of the number the result lay.

Common to all, as to assay type: cell-based
For series [1], the system named is cell mass containing neural tissue and nonneural epithelial tissue prepared from human ES cell line KhES-1. The experiment in a line: Compound stimulability test by fluorescein staining and extraction (Example 11). The conditions noted are these: test compound 2.5% in PBS, 24 hr, 37° C.; 0.02% fluorescein 30 sec; extraction 10 min; excitation 485 nm, emission 535 nm; Category 1 compound versus Category 2 compound. The method, then: Cell masses were prepared by the method described in Example 3 from human ES cell line KhES-1. Cell masses were collected using micropipette on day 28 from the start of suspension culturing, placed in a dish for suspension culture (manufactured by SUMITOMO BAKELITE CO., LTD.), and further cultured in suspension under the conditions of 37° C., 5% CO2 for 9 days. As the serum-free medium (gfCDM+KSR) therefor, a serum-free medium which is a 1:1 mixture of F-12+Glutamax medium (manufactured by Thermo Fisher Scientific) and […] medium (manufactured by Thermo Fisher Scientific) supplemented with 10% Knockout Serum Replacement (manufactured by Thermo Fisher Scientific), 450 μM 1-mono thioglycerol (manufactured by Wako Pure Chemical Industries, Ltd.), 1×Chemically defined lipid concentrate (manufactured by Thermo Fisher Scientific), 50 unit/ml penicillin-50 μg/ml streptomycin (manufactured by Nacalai Tesque) was used.
The cell masses on day 37 of suspension culturing and prepared by the above-mentioned method were added to 1.5 ml microtubes at 3 masses per tube, and washed twice with PBS. […] The concentration of fluorescein in the extract prepared by the above-mentioned method was measured using a fluorescent plate reader (2104 EnVision multilabel counter, manufactured by Perkin Elmer) under the conditions of excitation 485 nm and emission 535 nm.

Series [2] has as its system Human ES cells (KhES-1 strain). The experiment in a line: Consideration of concentration of BMP4 in production of cell mass (Example 6). On the procedure:
Human ES cells (KhES-1 strain, obtained from Kyoto University) were cultured under feeder-free conditions according to the method described in Scientific Reports, 4, 3594 (2014). As the feeder-free medium, StemFit medium was used and, as the feeder-free scaffold, Laminin 511-E8 was used. Specific maintenance culturing operation was performed in the same manner as in Comparative Example 1.
The thus-prepared subconfluent human ES cells were washed with PBS, subjected to an enzyme treatment using Accumax, a serum-free medium for differentiation induction was added, and the cells were scraped from the surface of the culture dish by using a cell scraper and dispersed into single cells by pipetting. Thereafter, the aforementioned human ES cells dispersed into single cells were suspended in 100 μl of a serum-free medium at 1×10^4 cells per well of a non-cell-adhesive 96-well culture plate (PrimeSurface 96V-bottom plate, manufactured by SUMITOMO BAKELITE), and cultured in suspension under the conditions of 37° C., 5% CO2. […]

The subject of series [3] is Human ES cells (KhES-1 strain). The series is described as follows: Consideration of timing of addition of BMP4 in production of cell mass (Example 4). The method, then:
Human ES cells (KhES-1 strain, obtained from Kyoto University) were cultured under feeder-free conditions according to the method described in Scientific Reports, 4, 3594 (2014). As the feeder-free medium, StemFit medium was used and, as the feeder-free scaffold, […] was used.
Specific maintenance culturing operation was performed in the same manner as in Comparative Example 1. Thereafter, suspension culturing in a 96-well plate under conditions similar to those in Comparative Example 1 was started. The condition without addition of a BMP signal transduction pathway activating substance during the suspension culturing period was taken as the control (−BMP4 condition, FIG. 5A). In the condition with the addition of a BMP signal transduction pathway activating substance simultaneously with the start of the suspension culturing (Day0+BMP4 condition, FIG. 5B), human recombinant BMP4 (manufactured by R & D Systems, 1.5 nM, start of step 2) was added. Thereafter, in the condition with the addition of a BMP signal transduction pathway activating substance on days 1, 2, 3 from the start of suspension culturing (Day1-3+BMP4 condition, FIGS. 5C-E), a serum-free medium not containing Y27632 and containing IWP-2, SB-431542, BMP4 was added at 100 μl per well. BMP4 was added at 3 nM to the medium such that the final concentration thereof in the well was 1.5 nM. Only in the Day0+BMP4 condition, a serum-free medium not containing Y27632 and containing IWP-2, SB-431542, BMP4 was added at 100 μl per well on day 3 from the start of suspension culturing. In the condition with the addition of a BMP signal transduction pathway activating substance on day 6 from the start of differentiation induction (Day6+BMP4 condition, FIG. 5F), a serum-free medium not containing Y27632 or BMP4 and containing IWP-2 and SB-431542 was added at 100 μl per well on day 3 from the start of differentiation induction, and a half amount of the medium was changed on day 6 with a serum-free medium not containing Y27632 and containing IWP-2, SB-431542, BMP4. Under other conditions, a half amount of the medium was changed with a serum-free medium not containing Y27632 or BMP and containing IWP-2 and SB-431542 on day 6 from the start of suspension culturing. On day 10 from the start of suspension culturing, bright field observation was performed using an inverted microscope (manufactured by KEYENCE CORPORATION, BIOREVO) (FIGS. 5A-B).

Setting [4] is: BMP4 1.5 nM, observation day 10.

With `O=Cc1ccc(C(=O)O)cc1` [4-formylbenzoic acid], the “elution amount after incorporation of fluorescein” value in series [1] is “significant difference”.

For the molecule `CC(CN1c2ccccc2Sc2ccccc21)N(C)C` (stereo not shown) [promethazine hydrochloride], the “elution amount after incorporation of fluorescein” value in series [1] is “significant difference”.

B1: BMP4: human recombinant BMP4 (manufactured by R & D Systems), BMP signal transduction pathway activating substance (protein, UniProt P12644 293-408, looked up)
Bone morphogenetic protein 4: SPKHHSQRARKKNKNCRRHSLYVDFSDVGWNDWIVAPPGYQAFYCHGDCPFPLADHLNSTNHAIVQTLVNSVNSSIPKACCVPTELSAISMLYLDEYDKVVLKNYQEMVVEGCGCR
Take B1: in series [2] (BMP4 added on day 2 from the start of suspension culturing), the “BMP4 concentration at which nonneural epithelial tissue can be formed on the surface of cell mass” value is on record as “not less than 0.1 nM”. Besides, the “formation of cell mass having nonneural epithelial tissue on the surface” value in series [2] (BMP4 at any concentration from 0.1 nM to 5 nM added on day 2, IWP-2 2 μM, SB-431542 1 μM, observation day 10) is recorded as “a cell mass having nonneural epithelial tissue on the surface was formed”. The “time of addition from the start of suspension culturing effective for formation of the cell mass” value in series [3] (BMP4 1.5 nM) is not above 72 h. Also, in series [3] (BMP4 1.5 nM added on day 1 and day 2 (Day1, 2+BMP4), observation day 10), the “formation of cell masses with two-layer structure” value is “cell masses containing neural tissue and nonneural epithelial tissue and having a two-layer structure in which a center part with a neuroepithelium-like structure is covered with a nonneural epithelium-like layer were formed”. Besides, the “efficiency of formation of nonneural epithelium-like tissue on the outside” value in series [3] (BMP4 1.5 nM added on day 3 and day 6, observation day 10) is recorded as “lower than that of the condition with the addition of BMP4 on day 2”. Also, the “formation of embryoid body” value in series [3] (BMP4 1.5 nM added simultaneously with start of differentiation induction (Day0+BMP4), observation day 10) was “markedly inhibited”. Further, in series [3] (setting [4]), the “diameter of embryoid body, BMP4 on day 2 relative to BMP4 on day 1” value was “about 1.3 times” and the “volume of embryoid body, BMP4 on day 2 relative to BMP4 on day 1” value was “about 2.2 times”.

(Values after patent US20210071137A1, “PRODUCTION METHOD FOR CELL MASS INCLUDING NEURAL CELLS/TISSUE AND NON-NEURAL EPITHELIAL TISSUE, AND CELL MASS FROM SAME” (SUMITOMO CHEMICAL COMPANY, LIMITED, priority 2017, published 2021).)
